From patent US20250066826A1, “ARTIFICIAL SYNTHESIS METHOD FOR MALONYL-COENZYME A (COA) AND USE THEREOF” (SHANGHAI JIAO TONG UNIVERSITY, priority 2023, published 2025)

B1: Pyd4: transaminase from Saccharomyces kluyveri, SEQ ID NO: 72 (protein)
chain: MPSYSVAELYYPDEPTEPKISTSSYPGPKAKQELEKLSNVFDTRAAYLLADYYKSRGNYIVDQDGNVLLDVYAQISSIALGYNNPEILKVAKSDAMSVALANRPALACFPSNDYGQLLEDGLLKAAPQGQDKIWTALSGSDANETAFKACFMYQAAKKRNGRSFSTEELESVMDNQLPGTSEMVICSFEKGFHGRLFGSLSTTRSKPIHKLDIPAFNWPKAPFPDLKYPLEENKEANKAEESSCIEKFSQIVQEWQGKIAAVIIEPIQSEGGDNHASSDFFQKLREITIENGILMIVDEVQTGVGATGKMWAHEHWNLSNPPDLVTFSKKFQAAGFYYHDPKLQPDQPFRQFNTWCGDPSKALIAKVIYEEIVKHDLVTRTAEVGNYLFNRLEKLFEGKNYIQNLRGKGQGTYIAFDFGTSSERDSFLSRLRCNGANVAGCGDSAVRLRPSLTFEEKHADVLVSIFDKTLRQLYG
modifications: The sequence is synthetized.
B2: CCNA_03245: transaminase from Caulobacter vibrioides, SEQ ID NO: 9 (protein)
chain: MLPMPDFGANDLDAFWMPFTPNRRFKRHPRMLSSASGMWYRTPESREVLDATSGLWCVNAGHDRPKIREAIQKQAAEMDYAPCFNMGHPLAFQFASRLAQITPKGLDRIFFTNSGSESVDTALKIALAYHRARGKGTKTRLIGRERGYHGVGFGGISVGGIPKNRMYFGSLLTGVDHLPHTHGLPGNTCAKGQPENGAHLADDLERIVALHDASNIAAVIVEPVAGSTGVLIPPKGYLERLRAICDKHDILLIFDEVITGFGRVGAPFAAERFGVTPDLICMAKGLTNAAVPCGAVAASGKIYDAMMDGADAPIELFHGYTYSAHPLACAAGLATLETYREDDLFARAAGLEGYWQDAMHSLADARHVVDVRNLGLVAGIELEPRPGAPTARAMEVFETCFDEGLLIRVTGDIIALSPPLILEKDHIDRMVETIRRVLGQVD
modifications: The sequence is synthetized.
B3: AptA: transaminase from Acinetobacter pittii, SEQ ID NO: 8 (protein)
chain: MVMFDTDKFSDSEHTLDAVQPNNNMYINYQAHWMPFSANRNFAKDPRMIVGAKGSYLIDDSGREIYDSLSGLWTCGAGHTLPEIQQAVSAQLGQLDYSPAFQFGHPLSFKLADKIVQHMPEKLQHVFFTNSGSESADTAIKMARAYWRIKGKPSKTKLIGRARGYHGVNVAGTSLGGIGGNRKMFGQLMDVDHLPHTLQPNLTFTKGCAETGGVELANEMLKLIELHDASNIAAVIVEPISGSAGCIVPPTGYLQRLREICDQHDILLIFDEVITGFGRLGTWTGAEYFGVTPDILNFAKQVTNGAIPLGGVVASHEIYSAFMQQELPEHAIEFTHGYTYSAHPVACAAALAALEVLEKKNLLAQSAALAPSFEKMLHGLKGAPHVLDIRNCGLIGALQLAPRDGDATIRGFELGMKLWKEGFYVRFGGDTLQFGPMFNGTEADIDRLMNAVGDALYQVN
modifications: The sequence is synthetized.
B4: PydD2: transaminase from Bacillus megaterium, SEQ ID NO: 10 (protein)
chain: MVQVSQNEKDLRAKDEQYVWHGMKPYSPDATMVATKAKGAWITDEQGNRYLDAMAGLWCVNTGYGRDELALAAYEQLKELAYFPLTQSHVPAIKLAEKLNEMLGDDYVIFFSNSGSEANETAFKIVRQYHQQKGEHSRYKFISRYRGYHGNSMGALAATGQAQRKYKYEPLAPGFIHVAPPDSYRGQDDYDAPKEQLQSVKDIDNVMTWELSETIAAVIMEPIITGGGILLPPQNYMKGVKETCEKHGALLIADEVICGFGRTGEAFGFMNYDVKPDIITMAKGITSAYLPLSATAVKKEIYEAFKDSDQYEYFRHVNTFGGSPAACALALKNLEIMERENLFDRSKQLGAYVLSELTPLIDSHPYVGDVRGKGLLIGIELVADKQTKEPLDVNLVNEVVAKCKSKGVIIGKNGATVAGYNNVLTLSPPLNIEESDIELLLATITYALDSIK
modifications: The sequence is synthetized.
B5: YhxA: transaminase from Bacillus cereus, SEQ ID NO: 11 (protein)
chain: MELMIVQVTEQTQSLKKTDEKYLWHAMRGAAPSPTNLIITKAEGAWVTDIDGNRYLDGMSGLWCVNVGYGRKELARAAFEQLEEMPYFPLTQSHVPAIKLAEKLNEWLDDEYVIFFSNSGSEANETAFKIARQYHQQKGDHGRYKFISRYRAYHGNSMGALAATGQAQRKYKYEPLGQGFLHVAPPDTYRNPEDVHTLASAEEIDRVMTWELSQTVAGVIMEPIITGGGILMPPDGYMEKVKEICEKHGALLICDEVICGFGRTGKPFGFMNYGVKPDIITMAKGITSAYLPLSATAVRREVYEAFVGSDDYDRFRHVNTFGGNPAACALALKNLEIMENEKLIERSKELGERLLYELEDVKEHPNVGDVRGKGLLLGIELVEDKQTKEPASIEKMNKVINACKEKGLIIGKNGDTVAGYNNILQLAPPLSITEEDFTFIVKTMKECLAQL
modifications: The sequence is synthetized.
B6: Msed_0709: oxidoreductase from Metallosphaera sedula, SEQ ID NO: 13 (protein)
chain: MRRTLKAAILGATGLVGIEYVRMLADHPYIKPTYLAGKGSVGKPYGEIVRWQTVGNVPKEVANQEVKPTDPKLMDDVDIIFSPLPQGAAGPVEEQFAKLGFNVISNSPDHRFDMDVPMIIPEVNPHTVTLIDEQRKRRDWKGFIVTTPLCTAQGAAIPLTPIYQNFKMSGVMITTMQSLSGAGYPGIASLDIVDNALPLGDGYDAKTVKEITRILSEVKRNVQEPGVNEITLDATTHRIATIHGHYEVAYVTFKEDTDVRKVMESMESFKGEPQDLKLPTAPEKPIIVTTQDARPQVFFDRWAGNPPGMSVVVGRLKQVNPRTIRFVSLIHNTVRGAAGGGVLTAELLVEKGYIDKR
modifications: The sequence is synthetized.
B7: pydD: transaminase from Ureibacillus massiliensis, SEQ ID NO: 71 (protein)
chain: MSDYLSIKEQDKQYVLHSWAKQGSFNPKVIAKAEGVCFWDDAGNRYFDMSSQLVYVNVGHQHPKVLKAFQEIGTYPLAGPSFATKPKSDLSQRIIELAPSNMAKVFYTSGGAEANDHAVKIARMVSGRYKIFSRYRSYHGATFGAGNLTGESRRFAAEPGLPGFVKFEVPYLYREVIDFDSEEAATAYYLGKLRNQILYEGSDTIAAIFIEPIPGSNGVLIPPKGYLEGVRALCDEFGILMICDEVMTGFGRTGKGFAVDHYDFKPDIMTFAKGVTSGYAPLGGVIISEDISRFFDENVLMTGLTYSGHTMCTQIGVANLEVYEEENIFENAEKMGILLKQRLEKLLTFPSIGEIRSIGLFAGVELVKDKATKEPIIQYGLDYGKDPVGLMNKFISMLSANGFYTYSHESTVIIAPPLIITEEQINEAMDIFESTLKQFEKEGLFPEETLSV
modifications: The sequence is synthetized.
B8: MCR-C: oxidoreductase (malonyl-CoA reductase) from Chloroflexus aurantiacu, SEQ ID NO: 70 (protein)
chain: SATTGARSASVGWAESLIGLHLGKVALITGGSAGIGGQIGRLLALSGARVMLAARDRHKLEQMQAMIQSELAEVGYTDVEDRVHIAPGCDVSSEAQLADLVERTLSAFGTVDYLINNAGIAGVEEMVIDMPVEGWRHTLFANLISNYSLMRKLAPLMKKQGSGYILNVSSYFGGEKDAAIPYPNRADYAVSKAGQRAMAEVFARFLGPEIQINAIAPGPVEGDRLRGTGERPGLFARRARLILENKRLNELHAALIAAARTDERSMHELVELLLPNDVAALEQNPAAPTALRELARRFRSEGDPAASSSSALLNRSIAAKLLARLHNGGYVLPADIFANLPNPPDPFFTRAQIDREARKVRDGIMGMLYLQRMPTEFDVAMATVYYLADRVVSGETFHPSGGLRYERTPTGGELFGLPSPERLAELVGSTVYLIGEHLTEHLNLLARAYLERYGARQVVMIVETETGAETMRRLLHDHVEAGRLMTIVAGDQIEAAIDQAITRYGRPGPVVCTPFRPLPTVPLVGRKDSDWSTVLSEAEFAELCEHQLTHHFRVARWIALSDGARLALVTPETTATSTTEQFALANFIKTTLHAFTATIGVESERTAQRILINQVDLTRRARAEEPRDPHERQQELERFIEAVLLVTAPLPPEADTRYAGRIHRGRAITV
modifications: The sequence is synthetized.
B9: BauA: transaminase from Pseudomonas aeruginosa, amino acid sequence SEQ ID NO: 7 (protein)
chain: MNQPLNVAPPVSSELNLRAHWMPFSANRNFQKDPRIIVAAEGSWLTDDKGRKVYDSLSGLWTCGAGHSRKEIQEAVARQLGTLDYSPGFQYGHPLSFQLAEKIAGLLPGELNHVFFTGSGSECADTSIKMARAYWRLKGQPQKTKLIGRARGYHGVNVAGTSLGGIGGNRKMFGQLMDVDHLPHTLQPGMAFTRGMAQTGGVELANELLKLIELHDASNIAAVIVEPMSGSAGVLVPPVGYLQRLREICDQHNILLIFDEVITAFGRLGTYSGAEYFGVTPDLMNVAKQVTNGAVPMGAVIASSEIYDTFMNQALPEHAVEFSHGYTYSAHPVACAAGLAALDILARDNLVQQSAELAPHFEKGLHGLQGAKNVIDIRNCGLAGAIQIAPRDGDPTVRPFEAGMKLWQQGFYVRFGGDTLQFGPTFNARPEELDRLFDAVGEALNGIA
modifications: The sequence is synthetized.

Key:
Assay type in all cases: biochemical
[1] = Transaminase activity test using α-ketoglutaric acid as a substrate; conditions: 5 mM α-ketoglutaric acid, 5 mM β-alanine, 10 M purified transaminase, 10 M MCR-C, pH 7.8, 37° C.
[2] = Transaminase activity test using pyruvic acid as a substrate (coupled with MCR-C, NADPH at 340 nm); conditions: 5 mM pyruvic acid, 5 mM β-alanine, 2.5 mM NADP+, 2.5 mM CoA, 1 M purified transaminase, 10 M MCR-C, pH 7.8, 37° C.
From the text: It can be seen that the BauA has the best effect (FIG. 4A).

[3] = Transaminase activity test using oxaloacetic acid as a substrate; conditions: 5 mM oxaloacetic acid, 5 mM β-alanine, 10 M purified transaminase, 10 M MCR-C, pH 7.8, 37° C.
[4] = Oxidoreductase activity test (coupled with BauA, increase at 340 nm); conditions: 1 M purified oxidoreductase, 37° C.; for activity of the target enzyme (in words): in-vitro reaction with 10 M BauA
Protocol: Oxidoreductase activity test: in-vitro reaction was carried out in a total reaction volume of 200 μL, containing 100 mM Tris buffer (pH 7.8), 2 mM MgCl2, 3 mM DTT, 5 mM pyruvic acid, 5 mM 3-alanine, 2.5 mM NADP^+, 2.5 mM CoA, 10 M BauA, and 1 M purified oxidoreductase, the reaction mixture was cultured at 37° C., and the increase in 340 nm was monitored.

Molecule	activity of the transaminases [2]	activity of the transaminases [3]	further results
B1	–	–	activity of the transaminases [1]: 1.15 µmol/min/mg
B2	0.13 µmol/min/mg	–	–
B3	0.90 µmol/min/mg	0.42 µmol/min/mg	–
B4	0.96 µmol/min/mg	0.49 µmol/min/mg	–
B5	0.15 µmol/min/mg	–	–
B6	–	–	activity of the target enzyme (in words) [4]: exhibit the activity of the target enzyme
B7	–	–	activity of the transaminases [1]: 0.825 µmol/min/mg
B8	–	–	oxidoreductase activity ([4]; 5 mM pyruvic acid, 5 mM alanine, 2.5 mM NADP+, 2.5 mM CoA, 10 M BauA): 2.0 µmol/min/mg; activity of the target enzyme (in words) [4]: exhibit the activity of the target enzyme
B9	1.60 µmol/min/mg	0.46 µmol/min/mg	–
